The record followed here is patent publication US20170266254A1 (AILERON THERAPEUTICS, published 2017).

Bridges are numbered along the chain shown (N, C = ends). [ ]: non-standard residue; d: D form. R8 = C=CCCCCCC[C@@](C)(N)C(=O)O; S5 = C=CCCC[C@](C)(N)C(=O)O

This assay addresses T1, C-terminally 6x Histidine-tagged Beta-Catenin (aa 134-668, 59 KD) (UniProt P35222 134-668).
T1 construct: range 134-668; Armadillo repeat region
T1 sequence: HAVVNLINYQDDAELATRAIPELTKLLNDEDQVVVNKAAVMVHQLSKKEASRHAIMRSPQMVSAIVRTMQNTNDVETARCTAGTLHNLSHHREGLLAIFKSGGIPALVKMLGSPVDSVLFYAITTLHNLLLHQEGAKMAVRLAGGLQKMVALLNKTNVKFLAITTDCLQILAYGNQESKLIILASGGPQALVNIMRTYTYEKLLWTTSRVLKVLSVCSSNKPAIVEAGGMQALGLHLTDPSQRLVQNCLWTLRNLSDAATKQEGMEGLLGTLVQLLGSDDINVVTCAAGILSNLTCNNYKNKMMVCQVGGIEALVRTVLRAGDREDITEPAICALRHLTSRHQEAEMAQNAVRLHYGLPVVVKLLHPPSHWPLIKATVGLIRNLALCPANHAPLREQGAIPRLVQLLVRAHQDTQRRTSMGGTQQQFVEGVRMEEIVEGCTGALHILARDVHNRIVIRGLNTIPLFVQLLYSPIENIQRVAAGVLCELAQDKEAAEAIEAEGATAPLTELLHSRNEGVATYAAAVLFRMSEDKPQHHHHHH
Kind of assay: competitive fluorescence polarization, FAM-labelled linear probe as competitor, His-tagged beta-catenin 134-668. The method, boiled down:
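FP competition in 25 mM Tris-HCl pH 7.5, 200 mM NaCl, 5 mM CHAPS, 2 mM DTT at room temperature. Competitor peptides at 40–0.7 μM 2× working range, constant DMSO. Probe (benchmark peptide with N-terminal FAM via β-Ala spacer) from 25 nM 10× stock. Read after 3 h in the dark, ex 485/em 528 nm.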
On the technique in general: Polarisation of emitted light reports the rotation of a fluorescent probe.

B1: SP21 (peptide)
peptide: Ac-LGANDELISFK[R8]EGEQEE[S5]SSN-NH2
modifications: staple 12-19
SMILES: CC[C@H](C)[C@H](NC(=O)[C@H](CC(C)C)NC(=O)[C@H](CCC(=O)O)NC(=O)[C@H](CC(=O)O)NC(=O)[C@H](CC(N)=O)NC(=O)[C@H](C)NC(=O)CNC(=O)[C@H](CC(C)C)NC(C)=O)C(=O)N[C@@H](CO)C(=O)N[C@@H](Cc1ccccc1)C(=O)N[C@@H](CCCCN)C(=O)N[C@]1(C)CCCCCCC=CCCC[C@@](C)(C(=O)N[C@@H](CO)C(=O)N[C@@H](CO)C(=O)N[C@@H](CC(N)=O)C(N)=O)NC(=O)[C@H](CCC(=O)O)NC(=O)[C@H](CCC(=O)O)NC(=O)[C@H](CCC(N)=O)NC(=O)[C@H](CCC(=O)O)NC(=O)CNC(=O)[C@H](CCC(=O)O)NC1=O
The term IC50 denotes the point on the concentration scale where inhibition reaches its midpoint. Consider B1, for which the IC50 came out at 23.9 µM.

B2: SP46 (peptide)
peptide: Ac-LGANDELISF[S5]DEG[S5]QQQKSSN-NH2
modifications: staple 11-15
SMILES: CC[C@H](C)[C@H](NC(=O)[C@H](CC(C)C)NC(=O)[C@H](CCC(=O)O)NC(=O)[C@H](CC(=O)O)NC(=O)[C@H](CC(N)=O)NC(=O)[C@H](C)NC(=O)CNC(=O)[C@H](CC(C)C)NC(C)=O)C(=O)N[C@@H](CO)C(=O)N[C@@H](Cc1ccccc1)C(=O)N[C@@]1(C)CCCC=CCCC[C@@](C)(C(=O)N[C@@H](CCC(N)=O)C(=O)N[C@@H](CCC(N)=O)C(=O)N[C@@H](CCC(N)=O)C(=O)N[C@@H](CCCCN)C(=O)N[C@@H](CO)C(=O)N[C@@H](CO)C(=O)N[C@@H](CC(N)=O)C(N)=O)NC(=O)CNC(=O)[C@H](CCC(=O)O)NC(=O)[C@H](CC(=O)O)NC1=O
Consider B2, for which the half-maximal inhibitory concentration (IC50) is 23.7 µM.

B3: SP44 (peptide)
peptide: Ac-LGANDELISF[S5]DQG[S5]QQEKSSN-NH2
modifications: staple 11-15
SMILES: CC[C@H](C)[C@H](NC(=O)[C@H](CC(C)C)NC(=O)[C@H](CCC(=O)O)NC(=O)[C@H](CC(=O)O)NC(=O)[C@H](CC(N)=O)NC(=O)[C@H](C)NC(=O)CNC(=O)[C@H](CC(C)C)NC(C)=O)C(=O)N[C@@H](CO)C(=O)N[C@@H](Cc1ccccc1)C(=O)N[C@@]1(C)CCCC=CCCC[C@@](C)(C(=O)N[C@@H](CCC(N)=O)C(=O)N[C@@H](CCC(N)=O)C(=O)N[C@@H](CCC(=O)O)C(=O)N[C@@H](CCCCN)C(=O)N[C@@H](CO)C(=O)N[C@@H](CO)C(=O)N[C@@H](CC(N)=O)C(N)=O)NC(=O)CNC(=O)[C@H](CCC(N)=O)NC(=O)[C@H](CC(=O)O)NC1=O
As to B3, the 50% inhibitory concentration (IC50) stood at 3.75 µM.

B4: SP39 (peptide)
peptide: Ac-LGANDELISF[S5]DQG[S5]QEEKSSN-NH2
modifications: staple 11-15
SMILES: CC[C@H](C)[C@H](NC(=O)[C@H](CC(C)C)NC(=O)[C@H](CCC(=O)O)NC(=O)[C@H](CC(=O)O)NC(=O)[C@H](CC(N)=O)NC(=O)[C@H](C)NC(=O)CNC(=O)[C@H](CC(C)C)NC(C)=O)C(=O)N[C@@H](CO)C(=O)N[C@@H](Cc1ccccc1)C(=O)N[C@@]1(C)CCCC=CCCC[C@@](C)(C(=O)N[C@@H](CCC(N)=O)C(=O)N[C@@H](CCC(=O)O)C(=O)N[C@@H](CCC(=O)O)C(=O)N[C@@H](CCCCN)C(=O)N[C@@H](CO)C(=O)N[C@@H](CO)C(=O)N[C@@H](CC(N)=O)C(N)=O)NC(=O)CNC(=O)[C@H](CCC(N)=O)NC(=O)[C@H](CC(=O)O)NC1=O
In the case of B4, the IC50 came out at 3.08 µM.

B5: SP53 (peptide)
peptide: Ac-LGANDQLISF[S5]DEG[S5]QEEKSSN-NH2
modifications: staple 11-15
SMILES: CC[C@H](C)[C@H](NC(=O)[C@H](CC(C)C)NC(=O)[C@H](CCC(N)=O)NC(=O)[C@H](CC(=O)O)NC(=O)[C@H](CC(N)=O)NC(=O)[C@H](C)NC(=O)CNC(=O)[C@H](CC(C)C)NC(C)=O)C(=O)N[C@@H](CO)C(=O)N[C@@H](Cc1ccccc1)C(=O)N[C@@]1(C)CCCC=CCCC[C@@](C)(C(=O)N[C@@H](CCC(N)=O)C(=O)N[C@@H](CCC(=O)O)C(=O)N[C@@H](CCC(=O)O)C(=O)N[C@@H](CCCCN)C(=O)N[C@@H](CO)C(=O)N[C@@H](CO)C(=O)N[C@@H](CC(N)=O)C(N)=O)NC(=O)CNC(=O)[C@H](CCC(=O)O)NC(=O)[C@H](CC(=O)O)NC1=O
In the case of B5, the half-inhibitory concentration (IC50) is 24.4 µM.

B6: SP40 (peptide)
peptide: Ac-LGANDELISF[S5]DEG[S5]QQEKSSN-NH2
modifications: staple 11-15
SMILES: CC[C@H](C)[C@H](NC(=O)[C@H](CC(C)C)NC(=O)[C@H](CCC(=O)O)NC(=O)[C@H](CC(=O)O)NC(=O)[C@H](CC(N)=O)NC(=O)[C@H](C)NC(=O)CNC(=O)[C@H](CC(C)C)NC(C)=O)C(=O)N[C@@H](CO)C(=O)N[C@@H](Cc1ccccc1)C(=O)N[C@@]1(C)CCCC=CCCC[C@@](C)(C(=O)N[C@@H](CCC(N)=O)C(=O)N[C@@H](CCC(N)=O)C(=O)N[C@@H](CCC(=O)O)C(=O)N[C@@H](CCCCN)C(=O)N[C@@H](CO)C(=O)N[C@@H](CO)C(=O)N[C@@H](CC(N)=O)C(N)=O)NC(=O)CNC(=O)[C@H](CCC(=O)O)NC(=O)[C@H](CC(=O)O)NC1=O
On to B6, for which the 50% inhibitory concentration (IC50) turned out to be 6.63 µM.

B7: SP45 (peptide)
peptide: Ac-LGANDELISF[S5]DQG[S5]QEQKSSN-NH2
modifications: staple 11-15
SMILES: CC[C@H](C)[C@H](NC(=O)[C@H](CC(C)C)NC(=O)[C@H](CCC(=O)O)NC(=O)[C@H](CC(=O)O)NC(=O)[C@H](CC(N)=O)NC(=O)[C@H](C)NC(=O)CNC(=O)[C@H](CC(C)C)NC(C)=O)C(=O)N[C@@H](CO)C(=O)N[C@@H](Cc1ccccc1)C(=O)N[C@@]1(C)CCCC=CCCC[C@@](C)(C(=O)N[C@@H](CCC(N)=O)C(=O)N[C@@H](CCC(=O)O)C(=O)N[C@@H](CCC(N)=O)C(=O)N[C@@H](CCCCN)C(=O)N[C@@H](CO)C(=O)N[C@@H](CO)C(=O)N[C@@H](CC(N)=O)C(N)=O)NC(=O)CNC(=O)[C@H](CCC(N)=O)NC(=O)[C@H](CC(=O)O)NC1=O
For B7, the concentration for half-maximal inhibition (IC50) stood at 10.9 µM.

B8: SP41 (peptide)
peptide: Ac-LGANDELISF[S5]DEG[S5]QEQKSSN-NH2
modifications: staple 11-15
SMILES: CC[C@H](C)[C@H](NC(=O)[C@H](CC(C)C)NC(=O)[C@H](CCC(=O)O)NC(=O)[C@H](CC(=O)O)NC(=O)[C@H](CC(N)=O)NC(=O)[C@H](C)NC(=O)CNC(=O)[C@H](CC(C)C)NC(C)=O)C(=O)N[C@@H](CO)C(=O)N[C@@H](Cc1ccccc1)C(=O)N[C@@]1(C)CCCC=CCCC[C@@](C)(C(=O)N[C@@H](CCC(N)=O)C(=O)N[C@@H](CCC(=O)O)C(=O)N[C@@H](CCC(N)=O)C(=O)N[C@@H](CCCCN)C(=O)N[C@@H](CO)C(=O)N[C@@H](CO)C(=O)N[C@@H](CC(N)=O)C(N)=O)NC(=O)CNC(=O)[C@H](CCC(=O)O)NC(=O)[C@H](CC(=O)O)NC1=O
Take B8: the half-maximal inhibitory concentration (IC50) was 19.5 µM.

B9: SP3 (peptide)
peptide: Ac-RNLA[S5]VKS[S5]LVNES-NH2
modifications: staple 5-9
SMILES: CC(=O)N[C@@H](CCCNC(=N)N)C(=O)N[C@@H](CC(N)=O)C(=O)N[C@@H](CC(C)C)C(=O)N[C@@H](C)C(=O)N[C@@]1(C)CCCC=CCCC[C@@](C)(C(=O)N[C@@H](CC(C)C)C(=O)N[C@H](C(=O)N[C@@H](CC(N)=O)C(=O)N[C@@H](CCC(=O)O)C(=O)N[C@@H](CO)C(N)=O)C(C)C)NC(=O)[C@H](CO)NC(=O)[C@H](CCCCN)NC(=O)[C@H](C(C)C)NC1=O
notes: also called Ac-RNLA$VKS$LVNES-NH2
B9: the IC50 was no less than 100 µM.

B10: SP36 (peptide)
peptide: Ac-VERGLANVK[S5]SLV[S5]ES-NH2
modifications: staple 10-14
SMILES: CC(=O)N[C@H](C(=O)N[C@@H](CCC(=O)O)C(=O)N[C@@H](CCCNC(=N)N)C(=O)NCC(=O)N[C@@H](CC(C)C)C(=O)N[C@@H](C)C(=O)N[C@@H](CC(N)=O)C(=O)N[C@H](C(=O)N[C@@H](CCCCN)C(=O)N[C@@]1(C)CCCC=CCCC[C@@](C)(C(=O)N[C@@H](CCC(=O)O)C(=O)N[C@@H](CO)C(N)=O)NC(=O)[C@H](C(C)C)NC(=O)[C@H](CC(C)C)NC(=O)[C@H](CO)NC1=O)C(C)C)C(C)C
Take B10: the 50% inhibitory concentration (IC50) is no less than 100 µM.

B11: SP1 (peptide)
peptide: Ac-NL[S5]NVK[S5]SLVNQS-NH2
modifications: staple 3-7
SMILES: CC(=O)N[C@@H](CC(N)=O)C(=O)N[C@@H](CC(C)C)C(=O)N[C@@]1(C)CCCC=CCCC[C@@](C)(C(=O)N[C@@H](CO)C(=O)N[C@@H](CC(C)C)C(=O)N[C@H](C(=O)N[C@@H](CC(N)=O)C(=O)N[C@@H](CCC(N)=O)C(=O)N[C@@H](CO)C(N)=O)C(C)C)NC(=O)[C@H](CCCCN)NC(=O)[C@H](C(C)C)NC(=O)[C@H](CC(N)=O)NC1=O
notes: also called Ac-NL$NVK$SLVNQS-NH2
Consider B11, for which the concentration for half-maximal inhibition (IC50) is no less than 100 µM.
